# Test results reported in patent US20220289841A1 (CHILDREN S HOSPITAL OF PHILADELPHIA, published 2022).
# B1: Clone 11F11 monoclonal antibody against CD22 Δex5-6 (antibody, V domains shown)
# VH: RVQLQQPGADLVRPGASVKLSCKASGYTFTSYWMSWVKQRPGQGLEWIGMIDPSDSEAHYNQMFRDKATLTVDNSSSTAYMVLSSLTSEDSAVYYCSNDFDYWGQGTTLTVSS
# VL: not shown
# notes: Mouse hybridoma antibody, from BALB/C mice immunized with a peptide containing the exon 4/exon 7 junction; No isotype is stated for the clone; also called the mAb; CD22 Δex5-6 antibody
# Biological target: T1, full-length CD22 (UniProt P20273 20-847, limits assumed)
# T1 construct: Re-expressed in OCI-Ly10 cells whose endogenous CD22 was deleted by CRISPR; also called CD22 full length (FL); CD22-full length
# T1 sequence (looked up): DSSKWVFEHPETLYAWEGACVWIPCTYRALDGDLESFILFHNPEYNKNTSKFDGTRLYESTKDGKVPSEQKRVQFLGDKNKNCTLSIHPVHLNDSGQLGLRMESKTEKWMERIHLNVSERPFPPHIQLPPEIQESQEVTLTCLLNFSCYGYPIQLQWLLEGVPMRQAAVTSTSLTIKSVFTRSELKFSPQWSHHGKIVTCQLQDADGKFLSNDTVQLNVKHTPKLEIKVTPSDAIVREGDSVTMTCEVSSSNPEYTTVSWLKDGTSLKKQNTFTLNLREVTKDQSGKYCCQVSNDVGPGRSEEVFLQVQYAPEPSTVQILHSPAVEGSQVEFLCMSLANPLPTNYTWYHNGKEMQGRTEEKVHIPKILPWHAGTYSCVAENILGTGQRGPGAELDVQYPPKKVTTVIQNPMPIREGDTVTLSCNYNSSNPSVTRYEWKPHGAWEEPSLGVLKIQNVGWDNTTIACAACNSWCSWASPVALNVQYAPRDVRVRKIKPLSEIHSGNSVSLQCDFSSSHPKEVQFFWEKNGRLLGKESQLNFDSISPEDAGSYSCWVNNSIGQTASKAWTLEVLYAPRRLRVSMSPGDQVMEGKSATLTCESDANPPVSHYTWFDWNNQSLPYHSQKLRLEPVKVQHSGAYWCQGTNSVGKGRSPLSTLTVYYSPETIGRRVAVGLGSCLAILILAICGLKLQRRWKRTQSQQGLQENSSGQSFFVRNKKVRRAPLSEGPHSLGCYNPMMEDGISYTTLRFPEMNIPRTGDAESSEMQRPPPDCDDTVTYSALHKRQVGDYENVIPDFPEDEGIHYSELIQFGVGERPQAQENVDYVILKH
# Assay: OCI-Ly10 cells with endogenous CD22 deleted by CRISPR, reconstituted with full-length CD22; Western blot (FIG. 5B)
# From the text: One top event was the increased skipping of exon 5-6 (Δex5-6) in CD22 in B-ALL. The inventors validated the RNA expression of this event in 18 out of 18 primary B-ALL samples with RT-PCR. And using Nanopore-based long read RNA sequencing, they confirmed the Δex5-6 event exists within a larger translatable transcript in B-ALL cell lines and B-ALL patient-derived xenografts (PDX). BALB/C mice were then immunized against a peptide containing the junction site of exon 4 and 7 to generate hybridomas and obtain a monoclonal antibody (mAb) against CD22 Δex5-6. To validate the specificity of the identified mAb, the inventors used CRISPR to delete endogenous CD22 in OCI-Ly10 cells and reconstituted the cells with either CD22 Δex5-6 or full length CD22. […] The inventors also validated that this mAb specifically binds to endogenously expressed CD22 Δex5-6 in multiple B-ALL cell lines and B-ALL patient-derived xenografts (PDX) by immunoprecipitation and Western blot analysis. In next steps, the inventors plan to develop antibody-drug conjugates and chimeric antigen receptors from our mAb for further therapeutic testing.
binder,measurement,value
B1,binding result,no binding
